Here are results for five molecules from US20170174733A1 (Genentech, published 2017).

Read-outs that look alike come from different tables or passages of the source.

Test [1] has as its target T1, human VEGF (human, UniProt P15692 27-191). Description: cell-based or functional assay.
Test [2] addresses T2, VEGF109 (UniProt P15692 214-315, biotinylated where loaded on streptavidin tips).
T2 construct: range 8-109; also called VEGF8-109; biotinylated VEGF109
T2 sequence: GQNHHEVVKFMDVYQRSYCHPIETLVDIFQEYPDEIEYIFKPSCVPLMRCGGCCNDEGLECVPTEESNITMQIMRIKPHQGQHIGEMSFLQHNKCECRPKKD
Description: BLI (OctetRED384): biotinylated VEGF109 on tips, monomeric variant in solution.

The target of test [3] is T2, VEGF109. Kind of test: BLI (OctetRED384): biotinylated VEGF109 on tips.
For test [4], the target named is T1, human VEGF. Kind of test: cell-based or functional assay. This is another data set of the same source.
Test [5] addresses T2, VEGF109.
Test [6] concerns the target T2, VEGF109. Description: BLI (OctetRED384): biotinylated VEGF109 on SA sensor tips.
For test [7], the target named is T1, human VEGF. Description: cell-based or functional assay. The source holds these as a separate data set.
Test [8] addresses T1, human VEGF. Description: cell-based or functional assay. The source holds these as a separate data set.
Test [9] has as its target T3, biotinylated VEGF165 (UniProt P15692 27-191).
T3 construct: range 1-165; also called VEGF1-165
Kind of test: competition binding ELISA: blocks biotinylated VEGF165 binding to coated VEGFR1-Fc. On the technique in general: In an ELISA, binding on a coated surface is turned into a signal by an enzyme label.

Test [10] addresses T3, biotinylated VEGF165. Description: competition binding ELISA: biotinylated VEGF165 premixed with the binder, then on coated VEGFR1-Fc (blocked partner), OD 450 nm.
For test [11], the target named is T4, LRP6 E1E2 with a C-terminal Avi-tag and His6-tag (human, UniProt O75581 20-630, biotinylated (Avi-tag) where loaded on streptavidin tips; unlabeled where in solution).
T4 construct: domain: E1E2; also called LRP6 receptor fragment E1E2; biotinylated LRP6-E1E2; not shown: C-terminal Avi-tag and His6-tag
T4 sequence: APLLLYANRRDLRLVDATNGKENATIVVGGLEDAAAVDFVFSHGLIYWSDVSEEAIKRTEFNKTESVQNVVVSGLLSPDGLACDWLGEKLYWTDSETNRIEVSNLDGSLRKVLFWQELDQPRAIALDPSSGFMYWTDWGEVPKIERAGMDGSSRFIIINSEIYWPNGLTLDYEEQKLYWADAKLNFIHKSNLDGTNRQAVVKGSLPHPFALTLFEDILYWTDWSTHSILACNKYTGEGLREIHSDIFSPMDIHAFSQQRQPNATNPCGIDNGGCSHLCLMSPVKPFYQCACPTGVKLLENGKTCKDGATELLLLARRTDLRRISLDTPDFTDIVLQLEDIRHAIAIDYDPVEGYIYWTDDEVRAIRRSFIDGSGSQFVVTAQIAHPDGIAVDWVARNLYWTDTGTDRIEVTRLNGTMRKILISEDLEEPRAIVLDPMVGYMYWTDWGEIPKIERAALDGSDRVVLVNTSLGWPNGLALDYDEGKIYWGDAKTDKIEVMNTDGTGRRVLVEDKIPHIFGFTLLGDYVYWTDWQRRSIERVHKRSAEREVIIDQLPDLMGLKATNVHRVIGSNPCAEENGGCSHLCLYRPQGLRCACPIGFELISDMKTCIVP
Description: BLI on small-scale ExiProgen protein with C-terminal Avi-tag.

Test [12] has as its target LRP6 on HEK293S cells (human, UniProt O75581 20-1613). Description: cell-based or functional assay.
For test [13], the target named is T4, LRP6 E1E2 with a C-terminal Avi-tag and …. Kind of test: BLI (OctetRED384), monomeric variant.
The target is the same in test [14]. Kind of test: biolayer interferometry (OctetRED384), fitting view of five traces, LRP6-E1E2. Background: BLI is a label-free optical method that tracks binding on a fibre tip over time.
Description: Binding affinities of chagasin variants for the targets LRP6 and VEGF109 were measured using the OctetRED384 (ForteBio). All washes, dilutions and measurements were performed in PBS-based kinetics buffer (ForteBio) with the plate shaking at 1000 rpm. Streptavidin biosensors (SA tips, ForteBio) were equilibrated in kinetics buffer for 5 min and then loaded with either biotinylated LRP6-E1E2 or biotinylated VEGF109 (20 μg/ml) to a density of 2 nm signal difference, followed by a 3 min washing step. […] Dissociation of the chagasin variant-target complex was measured in wells containing kinetics buffer alone for up to 30 min. Sensorgrams with ligand-loaded SA tips going through wells containing only buffer in both association and dissociation measurement were used as reference for background subtraction. Kd, kₐ and kd were determined using the Octet evaluation software v7.0.1.3. using a 1:1 binding model with global fitting. Alternatively, AMC-biosensors (Fortebio) were loaded with StrepMAB-Immo (IBA GmbH) to saturation and subsequently used to capture Strep-tag II containing chagasin variants to saturation. After 5 min of washing in kinetics buffer, binding kinetics to unlabeled LRP6-E1E2 fragment was determined essentially as described above.

T1 sequence (P15692 other isoform, or with tags, fused parts or gaps limits assumed): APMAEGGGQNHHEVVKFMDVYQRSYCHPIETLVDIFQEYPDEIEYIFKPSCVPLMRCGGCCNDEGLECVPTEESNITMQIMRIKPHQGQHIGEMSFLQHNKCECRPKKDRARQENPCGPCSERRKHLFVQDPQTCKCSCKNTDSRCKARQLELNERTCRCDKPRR
T3 sequence (P15692 other isoform, or with tags, fused parts or gaps limits assumed): as above

B1: monomeric chagasin VEGF variant L4X6-7 (designed binder)
chain: MSHKVTKAHNGATLTVAVGELVEIQLPSNYFREGFAWYFEGGTKESPNESMFTVENKYFPHVQWGWGAGGTEHFHVTVKAAGTHAVNLTYMAPWVGPSRELERFTVYLKAN
One may read the Kd as the equilibrium constant for the complex coming apart. Read a high Kd as a looser complex. Take B1: the “Inhibitory Activity (IC50, nM) against hVEGF in cell-based assays” value in [1] came to 65 nM. In addition, the dissociation constant (Kd) in test [2] is 150 nM; in [5] it was 160 nM. Also, in test [3], the “fold improvement of Kd over the parental variant 4” value was found to be 2.5 fold. Further, the “fold improvement of IC50 over the parental chagasin variant 4” value in test [4] is 13 fold.

B2: chagasin VEGF variant 66 (designed binder)
chain: MSHKVTKAHNGATLTVAVGELVEIQLPSNYYYDGFAWYFEGGTKESPNESMFTVENKYFPHYYNLGGRYTGAGGTEHFHVTVKAAGTHAVNLTYMGPWLGPSRVLERFTVYLKAN
notes: also called clone 66; not shown: C-terminal His6-tag and Avi-tag of the ExiProgen small-scale expression
As for B2, in [6], the binding result is reported as “binds”.

B3: GST-fused chagasin VEGF variant 4-66-F6 (designed binder)
chain: MSHKVTKAHNGATLTVAVGELVEIQLPSNYFYDGFAWYFEGGTKESPNESMFTVENKYFPNDPGSRLSGAGGTEHFHVTVKAAGTHAVNLTYMAPWLGPSRVLERFTVYLKAN
notes: also called GST-Variant 4; variant 4 as a GST-fusion protein; not shown: N-terminal His6-GST-tag and TEV cleavage site (pET52b backbone)
In general, IC50 refers to the midpoint of a concentration-inhibition curve. A high value points to lower potency. Turning to B3, the entries for the “Inhibitory activity (IC50, nM) against VEGF in cell-based assays” value in [7] and in test [8] were 73 nM and 28 nM, respectively. Moreover, the “IC50, inhibition of VEGF-dependent KDR phosphorylation on KDR-expressing CHO cells” value in test [4] came out at 72 nM. In addition, the values for the IC50 in test [9] and in test [10] were 13 nM and 14 nM, respectively.

B4: chagasin LRP6 variant S15 (designed binder)
chain: MSHKVTKAHNGATLTVAVGELVEIQLPSNADGFAWYFEGGTKESPNESMFTVENKYFPSNSTKRGAGGTEHFHVTVKAAGTHAVNLTYMRREKGSTLVVERFTVYLKAN
modifications: biotinylated at the Avi-tag (BirA)
notes: not shown: C-terminal His6-tag and Avi-tag (ExiProgen small-scale expression)
As to B4, in test [11], the binding result was “binds”.

B5: chagasin LRP6 variant H2 (designed binder)
chain: MSHKVTKAHNGATLTVAVGELVEIQLPSNPQTGFAWYFEGGTKESPNESMFTVENKYFPSNKVKGVPGFGAGGTEHFHVTVKAAGTHAVNLTYMGPWTGASQEPERFTVYLKAN
notes: also called clone H2
Turning to B5, the “IC50, inhibition of Wnt1 signaling (luciferase reporter, HEK293S cells transfected by WNT1)” value in [12] is 31 nM. The Kd is 0.4 nM in test [13] and 0.39 nM in [14].
